These results are taken from PMC9637102, “Structural basis for the activation of the lipid scramblase TMEM16F” (Nature Communications, 2022).

Data set [1] concerns the molecule itself. Briefly: cryo-EM structure; protein in digitonin (20 mM HEPES pH 7.4, 150 mM NaCl, 2 mM EGTA, 0.1% digitonin), 1.5-2 mg/ml; Ca2+-free, or with 2 mM free CaCl2 and 0.01 mM diC8-PI(4,5)P2; homodimer.
Data set [2] deals with the molecule itself. Description: cryo-EM structure; protein in GDN (0.03% in the SEC buffer), Ca2+-bound; homodimer.

B1: murine TMEM16F mutant F518H (natural protein, UniProt Q6P9J9 1-911, looked up)
chain: MQMMTRKVLLNMELEEDDDEDGDIVLENFDQTIVCPTFGSLENQQDFRTPEFEEFNGKPDSLFFTDGQRRIDFILVYEDESKKENNKKGTNEKQKRKRQAYESNLICHGLQLEATRSVSDDKLVFVKVHAPWEVLCTYAEIMHIKLPLKPNDLKTRSPFGNLNWFTKVLRVNESVIKPEQEFFTAPFEKSRMNDFYILDRDSFFNPATRSRIVYFILSRVKYQVMNNVNKFGINRLVSSGIYKAAFPLHDCRFNYESEDISCPSERYLLYREWAHPRSIYKKQPLDLIRKYYGEKIGIYFAWLGYYTQMLLLAAVVGVACFLYGYLDQDNCTWSKEVCDPDIGGQILMCPQCDRLCPFWRLNITCESSKKLCIFDSFGTLIFAVFMGVWVTLFLEFWKRRQAELEYEWDTVELQQEEQARPEYEAQCNHVVINEITQEEERIPFTTCGKCIRVTLCASAVFFWILLIIASVIGIIVYRLSVFIVFSTTLPKNPNGTDPIQKYLTPQMATSITASIISHIIIMILNTIYEKVAIMITNFELPRTQTDYENSLTMKMFLFQFVNYYSSCFYIAFFKGKFVGYPGDPVYLLGKYRSEECDPGGCLLELTTQLTIIMGGKAIWNNIQEVLLPWVMNLIGRYKRVSGSEKITPRWEQDYHLQPMGKLGLFYEYLEMIIQFGFVTLFVASFPLAPLLALVNNILEIRVDAWKLTTQFRRMVPEKAQDIGAWQPIMQGIAILAVVTNAMIIAFTSDMIPRLVYYWSFSIPPYGDHTYYTMDGYINNTLSVFNITDFKNTDKENPYIGLGNYTLCRYRDFRNPPGHPQEYKHNIYYWHVIAAKLAFIIVMEHIIYSVKFFISYAIPDVSKITKSKIKREKYLTQKLLHESHLKDLTKNMGIIAERIGGTVDNSVRPKLE
notes: TMEM16F (anoctamin-6), murine; point mutant F518H; A 3C recognition site stands between TMEM16F and the C-terminal Myc and SBP tags; no cleavage is described; also called F518H^noCa; F518H^Ca; source: TMEM16F KO cells in suspension culture, transient transfection (PEI MAX); purified (Strep-tactin, SEC on Superose 6) in digitonin, or reconstituted into MSP 2N2 nanodiscs (3 POPC:1 POPG)
Regarding B1, the binding result in data set [1] is given as “binds”.

B2: murine TMEM16F double mutant F518A/Q623A (natural protein, UniProt Q6P9J9 1-911, looked up)
chain: MQMMTRKVLLNMELEEDDDEDGDIVLENFDQTIVCPTFGSLENQQDFRTPEFEEFNGKPDSLFFTDGQRRIDFILVYEDESKKENNKKGTNEKQKRKRQAYESNLICHGLQLEATRSVSDDKLVFVKVHAPWEVLCTYAEIMHIKLPLKPNDLKTRSPFGNLNWFTKVLRVNESVIKPEQEFFTAPFEKSRMNDFYILDRDSFFNPATRSRIVYFILSRVKYQVMNNVNKFGINRLVSSGIYKAAFPLHDCRFNYESEDISCPSERYLLYREWAHPRSIYKKQPLDLIRKYYGEKIGIYFAWLGYYTQMLLLAAVVGVACFLYGYLDQDNCTWSKEVCDPDIGGQILMCPQCDRLCPFWRLNITCESSKKLCIFDSFGTLIFAVFMGVWVTLFLEFWKRRQAELEYEWDTVELQQEEQARPEYEAQCNHVVINEITQEEERIPFTTCGKCIRVTLCASAVFFWILLIIASVIGIIVYRLSVFIVFSTTLPKNPNGTDPIQKYLTPQMATSITASIISAIIIMILNTIYEKVAIMITNFELPRTQTDYENSLTMKMFLFQFVNYYSSCFYIAFFKGKFVGYPGDPVYLLGKYRSEECDPGGCLLELTTQLTIIMGGKAIWNNIAEVLLPWVMNLIGRYKRVSGSEKITPRWEQDYHLQPMGKLGLFYEYLEMIIQFGFVTLFVASFPLAPLLALVNNILEIRVDAWKLTTQFRRMVPEKAQDIGAWQPIMQGIAILAVVTNAMIIAFTSDMIPRLVYYWSFSIPPYGDHTYYTMDGYINNTLSVFNITDFKNTDKENPYIGLGNYTLCRYRDFRNPPGHPQEYKHNIYYWHVIAAKLAFIIVMEHIIYSVKFFISYAIPDVSKITKSKIKREKYLTQKLLHESHLKDLTKNMGIIAERIGGTVDNSVRPKLE
notes: TMEM16F (anoctamin-6), murine; double mutant F518A and Q623A; A 3C recognition site stands between TMEM16F and the C-terminal Myc and SBP tags; no cleavage is described; source: TMEM16F KO cells in suspension culture, transient transfection (PEI MAX); purified (Strep-tactin, SEC on Superose 6) in GDN
On to B2, for which, in data set [2], the binding result was “binds”.

B3: murine TMEM16F mutant N562A (natural protein, UniProt Q6P9J9 1-911, looked up)
chain: MQMMTRKVLLNMELEEDDDEDGDIVLENFDQTIVCPTFGSLENQQDFRTPEFEEFNGKPDSLFFTDGQRRIDFILVYEDESKKENNKKGTNEKQKRKRQAYESNLICHGLQLEATRSVSDDKLVFVKVHAPWEVLCTYAEIMHIKLPLKPNDLKTRSPFGNLNWFTKVLRVNESVIKPEQEFFTAPFEKSRMNDFYILDRDSFFNPATRSRIVYFILSRVKYQVMNNVNKFGINRLVSSGIYKAAFPLHDCRFNYESEDISCPSERYLLYREWAHPRSIYKKQPLDLIRKYYGEKIGIYFAWLGYYTQMLLLAAVVGVACFLYGYLDQDNCTWSKEVCDPDIGGQILMCPQCDRLCPFWRLNITCESSKKLCIFDSFGTLIFAVFMGVWVTLFLEFWKRRQAELEYEWDTVELQQEEQARPEYEAQCNHVVINEITQEEERIPFTTCGKCIRVTLCASAVFFWILLIIASVIGIIVYRLSVFIVFSTTLPKNPNGTDPIQKYLTPQMATSITASIISFIIIMILNTIYEKVAIMITNFELPRTQTDYENSLTMKMFLFQFVAYYSSCFYIAFFKGKFVGYPGDPVYLLGKYRSEECDPGGCLLELTTQLTIIMGGKAIWNNIQEVLLPWVMNLIGRYKRVSGSEKITPRWEQDYHLQPMGKLGLFYEYLEMIIQFGFVTLFVASFPLAPLLALVNNILEIRVDAWKLTTQFRRMVPEKAQDIGAWQPIMQGIAILAVVTNAMIIAFTSDMIPRLVYYWSFSIPPYGDHTYYTMDGYINNTLSVFNITDFKNTDKENPYIGLGNYTLCRYRDFRNPPGHPQEYKHNIYYWHVIAAKLAFIIVMEHIIYSVKFFISYAIPDVSKITKSKIKREKYLTQKLLHESHLKDLTKNMGIIAERIGGTVDNSVRPKLE
notes: TMEM16F (anoctamin-6), murine; point mutant N562A; A 3C recognition site stands between TMEM16F and the C-terminal Myc and SBP tags; no cleavage is described; also called N562A^Ca; N562A^Cacc; source: TMEM16F KO cells in suspension culture, transient transfection (PEI MAX); purified (Strep-tactin, SEC on Superose 6) in digitonin
For the protein B3, in data set [1], the binding result is reported as “binds”.
